Data as given in patent US20230250148A1 (published 2023).
Each block holds one binder with its values, some of them ahead of it.

Assays:
[1] = target: T1, human insulin receptor (IR) on human IM-9 cells (human, UniProt P06213 28-1382); assay: competition with biotinylated RHI on IM-9 cells, flow cytometry, 4 C; material purified via Protein A
T1 construct: whole, on cells; also called human IR
Experimental: (§1) 40 µL of an IM-9 cell suspension (8×10⁶ cells/mL) was then added to each well by multichannel pipette, mixed again gently and incubated on ice for 30 min to allow competitive binding on the IR on IM-9 cells. Cells were then washed twice with 275µL of ice-cold FACS wash buffer (HBSS/2mM EDTA/0.1% Na-azide + 0.5% horse serum) by centrifuging the V-bottom plate at 3000 rpm for 3 min and aspirating the supernatant. Cells were then resuspended in 40µL of FACS staining medium containing 1:100 diluted Streptavidin-PE (Life Technologies) for 20 min on ice. Cells were then washed once with 275 µL of ice-cold FACS buffer and finally fixed with 3% paraformaldehyde for 10 min at room temp. Cells were then washed once with 275 µL of ice-cold FACS buffer and resuspended in 250µl of FACS buffer for analysis.
(§2) The insulin-Fc fusion proteins were manufactured in HEK293 cells according to Example 1 and purified using a Protein A or Protein G columns according to Example 4. […] Their %homodimer content was measured by size-exclusion chromatography according to Example 10, and their insulin receptor binding affinities were measured according to Example 12. Additionally, the insulin-Fc fusion protein affinities for the canine FcRn receptor were measured according to Example 15.

biotinylated canine FcRn [2] = target: T2, biotinylated canine FcRn (canine, UniProt A0A8I3PFR8 25-347, biotinylated, site not stated); assay: ELISA pH 5.5, fusion protein coated, biotinylated canine FcRn titrated
T2 sequence (A0A8I3PFR8 entry or part of it): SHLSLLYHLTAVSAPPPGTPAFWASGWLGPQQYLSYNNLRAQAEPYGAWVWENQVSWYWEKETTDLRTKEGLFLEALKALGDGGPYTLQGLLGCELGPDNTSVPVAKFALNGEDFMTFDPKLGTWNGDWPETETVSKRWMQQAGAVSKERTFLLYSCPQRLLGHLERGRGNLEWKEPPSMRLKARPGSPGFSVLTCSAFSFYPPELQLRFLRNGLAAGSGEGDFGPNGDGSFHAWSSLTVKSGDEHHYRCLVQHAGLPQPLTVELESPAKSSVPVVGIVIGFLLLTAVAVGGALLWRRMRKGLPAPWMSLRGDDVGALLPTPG
Experimental: (§3) Insulin-Fc fusion proteins comprising Fc fragments of canine origin were diluted to 10 µg/ml in sodium bicarbonate pH 9.6 buffer and coated in duplicate on Maxisorb ELISA plate strips for 1-2 hours at RT. The strips were then washed 4 times with PBST (PBS/0.1% Tween-20) buffer and blocked with Superblock blocking reagent (ThermoFisher). Strips for FcRn binding were then washed again twice with pH 5.5 MES/NaCl/Tween (50 mM MES/150mM NaCl/0.1% Tween-20) buffer before addition of the FcRn reagent (biotinylated canine FcRn; Immunitrack). Serial dilutions (1:3X dilutions) of biotinylated FcRn reagent were prepared in pH 5.5 MES/NaCl/Tween/10%Superblock buffer at concentrations from 1000 ng/ml to 0.45 ng/mL and loaded at 100 µL/well using a multichannel pipettor onto the strips coated with the insulin-Fc fusion protein compounds. The assay plate was then incubated for 1 hour at room temperature. FcRn binding strips were washed 4 times with pH 5.5 MES/NaCl/Tween buffer and then loaded with 100 µl/well streptavidin-HRP diluted 1:10000 in pH 5.5 MES/NaCl /10%Superblock buffer. After incubating for 45 minutes, strips were washed again 4 times with pH 5.5 MES/NaCl/Tween buffer. […] The plate was read in an ELISA plate reader at a wavelength of 450 nm. […] EC50 values for each binding curve were calculated to compare between different compounds.

[3] = target: T3, biotinylated recombinant human Fc(gamma)RI (human, UniProt P12314 16-288, biotinylated, site not stated); assay: ELISA, fusion protein coated, biotinylated rhFc(gamma)RI at 3000 ng/mL
T3 construct: Bought reagent; construct not described; also called rhFc(gamma)RI; Fc(gamma) receptor I
T3 sequence (P12314 16-288 limits assumed): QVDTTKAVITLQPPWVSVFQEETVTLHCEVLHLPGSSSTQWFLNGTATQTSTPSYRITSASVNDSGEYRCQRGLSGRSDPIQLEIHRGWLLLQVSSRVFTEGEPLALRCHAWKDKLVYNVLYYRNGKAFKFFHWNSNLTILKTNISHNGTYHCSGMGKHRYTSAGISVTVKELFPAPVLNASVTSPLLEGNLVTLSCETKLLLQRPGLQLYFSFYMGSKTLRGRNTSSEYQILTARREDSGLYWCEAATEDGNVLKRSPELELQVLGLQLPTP

[4] = target: T1, human insulin receptor (IR) on human …; assay: competition with biotinylated RHI on IM-9 cells, flow cytometry, 4 C
biotinylated canine FcRn [5] = target: T2, biotinylated canine FcRn; assay: FcRn ELISA; species of FcRn not given, taken as canine
Experimental: as §3

[6] = target: T1, human insulin receptor (IR) on human …; assay: competition with biotinylated RHI on IM-9 cells, flow cytometry, 4 C; material purified by Protein G
Experimental: as §1, §2

T1 sequence (P06213 28-1382): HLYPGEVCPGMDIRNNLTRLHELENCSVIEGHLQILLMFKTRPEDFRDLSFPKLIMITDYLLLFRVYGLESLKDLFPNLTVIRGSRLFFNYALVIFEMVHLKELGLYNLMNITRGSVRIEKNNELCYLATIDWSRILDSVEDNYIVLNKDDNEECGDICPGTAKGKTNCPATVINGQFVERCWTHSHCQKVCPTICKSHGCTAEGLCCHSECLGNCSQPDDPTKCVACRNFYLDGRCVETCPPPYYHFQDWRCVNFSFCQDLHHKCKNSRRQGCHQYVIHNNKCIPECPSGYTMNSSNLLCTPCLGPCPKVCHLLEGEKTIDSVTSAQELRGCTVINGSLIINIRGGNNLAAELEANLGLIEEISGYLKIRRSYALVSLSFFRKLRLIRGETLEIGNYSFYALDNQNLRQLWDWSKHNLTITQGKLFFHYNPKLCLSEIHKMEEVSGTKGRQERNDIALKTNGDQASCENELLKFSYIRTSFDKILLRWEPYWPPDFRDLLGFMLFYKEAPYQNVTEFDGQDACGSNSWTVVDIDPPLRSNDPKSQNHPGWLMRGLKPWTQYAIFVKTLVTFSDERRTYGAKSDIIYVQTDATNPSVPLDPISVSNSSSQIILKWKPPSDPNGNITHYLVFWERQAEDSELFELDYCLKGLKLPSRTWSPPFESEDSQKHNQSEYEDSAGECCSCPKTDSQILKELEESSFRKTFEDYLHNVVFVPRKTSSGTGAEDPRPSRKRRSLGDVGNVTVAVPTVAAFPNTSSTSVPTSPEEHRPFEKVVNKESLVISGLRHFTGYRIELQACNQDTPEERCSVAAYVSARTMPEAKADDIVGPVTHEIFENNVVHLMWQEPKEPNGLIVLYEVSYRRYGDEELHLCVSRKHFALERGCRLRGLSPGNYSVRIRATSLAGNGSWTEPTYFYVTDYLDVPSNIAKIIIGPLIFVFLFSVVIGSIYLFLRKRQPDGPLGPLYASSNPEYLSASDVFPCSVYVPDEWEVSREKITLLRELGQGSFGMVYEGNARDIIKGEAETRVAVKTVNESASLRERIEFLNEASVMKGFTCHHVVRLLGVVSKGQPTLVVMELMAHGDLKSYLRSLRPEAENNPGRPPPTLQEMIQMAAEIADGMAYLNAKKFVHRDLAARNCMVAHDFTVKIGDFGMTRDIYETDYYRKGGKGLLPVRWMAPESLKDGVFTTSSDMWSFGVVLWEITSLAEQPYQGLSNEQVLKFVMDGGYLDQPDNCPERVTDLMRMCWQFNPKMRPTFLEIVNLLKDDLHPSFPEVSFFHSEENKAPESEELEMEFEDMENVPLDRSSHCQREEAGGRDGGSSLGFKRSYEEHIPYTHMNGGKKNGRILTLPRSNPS

IC50 [1]: 2.59 µM
EC50 (biotinylated canine FcRn [2]): 1.61 µg/mL
OD450nm [3]: 0.253
OD450nm minus assay background [3]: 0.196
ratio to SEQ ID NO: 36 [3]: 0.53
B1: insulin-Fc fusion protein of SEQ ID NO: 58 (Fc fusion)
chain: FVNQHLCGSHLVEALELVCGERGFHYGGGGGGSGGGGGIVEQCCTSTCSLDQLENYCGGGGGQGGGGQGGGGQGGGGGRCTDTPPCPVPEPLGGPSVLIFPPKPKDILRITRTPEVTCVVLDLGREDPEVQISWFVDGKEVHTAKTQSREQQFNGTYRVVSVLPIEHQDWLTGKEFKCRVNHIDLPSPIERTISKARGRAHKPSVYVLPPSPKELSSSDTVSITCLIKDFYPPDIDVEWQSNGQQEPERKHRMTPPQLDEDGSYFLYSKLSVDKSRWQQGDPFTCAVMHETLQNHYTDLSLSHSPG
notes: purified by Protein A or Protein G

IC50 [4]: 2.04 µM
OD450nm [3]: 0.177
OD450nm minus assay background [3]: 0.12
ratio to SEQ ID NO: 36 [3]: 0.32
EC50 (biotinylated canine FcRn [5]): 1.19 µg/mL
B2: insulin-Fc fusion protein of SEQ ID NO: 30 (Fc fusion)
chain: FVNQHLCGSHLVEALALVCGERGFHYGGGGGGSGGGGGIVEQCCTSTCSLDQLENYCGGGGGQGGGGQGGGGQGGGGGDCPKCPAPEMLGGPSVFIFPPKPKDTLLIARTPEVTCVVVDLDPEDPEVQISWFVDGKQMQTAKTQPREEQFSGTYRVVSVLPIGHQDWLKGKQFTCKVNNKALPSPIERTISKARGQAHQPSVYVLPPSREELSKNTVSLTCLIKDFFPPDIDVEWQSNGQQEPESKYRTTPPQLDEDGSYFLYSKLSVDKSRWQRGDTFICAVMHEALHNHYTQESLSHSPG

IC50 [6]: 2.08 µM
B3: insulin-Fc fusion protein of SEQ ID NO: 59 (Fc fusion)
chain: FVNQHLCGSHLVEALELVCGERGFHYGGGGGGSGGGGGIVEQCCTSTCSLDQLENYCGGGGGQGGGGQGGGGQGGGGGCNNCPCPGCGLLGGPSVFIFPPKPKDILVTARTPTVTCVVVDLDPENPEVQISWFVDSKQVQTANTQPREEQSNGTYRVVSVLPIGHQDWLSGKQFKCKVNNKALPSPIEEIISKTPGQAHQPNVYVLPPSRDEMSKNTVTLTCLVKDFFPPEIDVEWQSNGQQEPESKYRMTPPQLDEDGSYFLYSKLSVDKSRWQRGDTFICAVMHEALHNHYTQISLSHSPG
notes: purified by Protein G
